Measurements taken from US20240409645A1 (DUALYX, published 2024).
Substitutions are numbered along the chain they refer to. One block for each binder: values may come before it.

What was measured:
human IL-2Rβ [1] = molecular target: T1, human IL-2Rβ (human, UniProt P14784 27-240, limits assumed); assay: P.E. binding ELISA, human IL-2Rβ coated
T1 construct: Recombinant human IL-2Rβ protein, coated on ELISA plates or immobilized on a CM5 chip; also called hu IL-2R; interleukin 2 receptor β-chain
T1 sequence: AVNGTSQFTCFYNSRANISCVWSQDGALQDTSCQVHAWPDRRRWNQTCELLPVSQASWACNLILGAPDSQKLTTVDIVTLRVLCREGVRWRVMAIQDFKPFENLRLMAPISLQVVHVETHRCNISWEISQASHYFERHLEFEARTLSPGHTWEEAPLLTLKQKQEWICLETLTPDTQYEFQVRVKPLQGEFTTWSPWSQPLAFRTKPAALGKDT
Description: (§1) In a binding ELISA, human or mouse IL-2Rα, IL-2Rβ and IL-2Rγ proteins were coated directly on maxisorp microtiter plates overnight at 4° C. Free binding sites were blocked using 4% Marvel in PBS for 1 hour. Next, 1:5 dilution of P.E. in 1% Marvel/PBS were added to wells and incubated for 1 hour. […] Binding specificity was determined based on O.D. at 450 nm values compared to negative controls.

human IL-2Rβ [2] = molecular target: T1, human IL-2Rβ; assay: SPR off-rate ranking of P.E., human IL-2Rβ immobilized
Description: (§2) SPR was performed to determine dissociation rates using Biacore 3000 instrument (GE Healthcare). Briefly, human and mouse IL-2R proteins were immobilized on carboxylmethyl dextran sensor chip (CM5) at approximately 2500 RUs using amine coupling in acetate buffer (GE Healthcare). The VHH-containing P.E. were loaded with a flow rate of 30 uL/min and the off-rates were measured over a 120s period.

[3] = molecular target: T2, human common cytokine receptor γ-chain (IL-2Rγ) (human, UniProt P31785 23-262, limits assumed); assay: P.E. off-rate SPR
T2 construct: Recombinant human IL-2Rγ protein, coated (ELISA) or amine-coupled to a CM5 chip (SPR); also called hu IL-2R; CD132
T2 sequence: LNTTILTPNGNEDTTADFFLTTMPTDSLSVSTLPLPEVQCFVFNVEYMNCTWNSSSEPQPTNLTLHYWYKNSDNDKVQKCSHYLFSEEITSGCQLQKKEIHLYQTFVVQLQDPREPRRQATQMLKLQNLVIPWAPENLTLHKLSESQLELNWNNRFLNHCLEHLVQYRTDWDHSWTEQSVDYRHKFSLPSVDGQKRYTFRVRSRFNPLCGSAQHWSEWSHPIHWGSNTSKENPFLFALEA
Description: as §2

[4] = molecular target: T3, mouse common cytokine receptor γ-chain (IL-2Rγ) (mouse, UniProt P34902 23-263, limits assumed); assay: P.E. off-rate SPR
T3 construct: Recombinant mouse IL-2Rγ protein; also called mo IL-2R; mouse IL-2R gamma
T3 sequence (looked up): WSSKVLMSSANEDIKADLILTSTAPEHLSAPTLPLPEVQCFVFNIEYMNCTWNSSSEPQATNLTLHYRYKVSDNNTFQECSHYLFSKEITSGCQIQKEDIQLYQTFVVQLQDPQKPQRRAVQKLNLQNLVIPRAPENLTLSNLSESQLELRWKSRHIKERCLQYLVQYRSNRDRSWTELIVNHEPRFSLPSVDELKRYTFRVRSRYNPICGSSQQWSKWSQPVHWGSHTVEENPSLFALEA
Description: as §2

[5] = molecular target: T2, human common cytokine receptor γ-chain …; assay: P.E. binding ELISA
Description: as §1

[6] = molecular target: T3, mouse common cytokine receptor γ-chain …; assay: P.E. binding ELISA
Description: as §1

B1: FJ1427_P035MP06H02 (VHH)
VHH: QVQLVESGGGLVQAGGSLRLSCAVSGDVFVRYTMAWFRQAPGKEREFVASVTDSGRTTEYVDSVKGRFTVSRDNAKNTAYLQMNNLKPEDTAVYYCAANTDYFQIRSLDLNTWGQGTQVTVSS
notes: Soluble VHH in periplasmic extract (P.E.); also called Clone nr
OD450 nm (P.E. binding ELISA) (human IL-2Rβ [1]): 0.371 OD450 nm
koff (human IL-2Rβ [2]): 0.000171 s⁻¹

B4: FJ1427_P035MP07G08 (VHH)
VHH: QVQLVESGGGLVQAGGSLRLSCAASGRTLSRYAMGWFRQAPGREREFVTANSWGGDTYYADSVQGRFTFSRDNAKNTVYLQMSSLQPEDTAVYYCAAAPTSFATTAYSSSNSYAYWGQGTQVTVSS
notes: tested as periplasmic extract; also called Clone nr
koff [3]: 0.003 s⁻¹
koff [4]: 0.105 s⁻¹
PE binding ELISA OD [5]: 0.504 OD450 nm
PE binding ELISA OD [6]: 0.047 OD450 nm

B7: FJ1427_P035MP07C07 (VHH)
VHH: B4 VHH with R43K, S83N
notes: tested as periplasmic extract; also called Clone nr; 627
koff [3]: 0.0025 s⁻¹
koff [4]: 0.105 s⁻¹
PE binding ELISA OD [5]: 0.469 OD450 nm
PE binding ELISA OD [6]: 0.047 OD450 nm

B8: FJ1427_P035MP07D03 (VHH)
VHH: B4 VHH with R43K, S83N
notes: as for B4
koff [3]: 0.00339 s⁻¹
koff [4]: 0.107 s⁻¹
PE binding ELISA OD [5]: 1.25 OD450 nm
PE binding ELISA OD [6]: 0.046 OD450 nm

B9: FJ1427_P035MP07E10 (VHH)
VHH: B4 VHH with R43K, S83N
notes: tested as periplasmic extract; also called Clone nr; 653
koff [3]: 0.0033 s⁻¹
koff [4]: 0.107 s⁻¹
PE binding ELISA OD [5]: 0.434 OD450 nm
PE binding ELISA OD [6]: 0.047 OD450 nm

B10: FJ1427_P035MP07A07 (VHH)
VHH: B4 VHH with R43K, S83N
notes: as for B4
koff [3]: 0.00173 s⁻¹
koff [4]: 0.0971 s⁻¹
PE binding ELISA OD [5]: 1.04 OD450 nm
PE binding ELISA OD [6]: 0.047 OD450 nm

B12: FJ1427_P035MP07C08 (VHH)
VHH: B4 VHH with R43K, S83N
notes: tested as periplasmic extract; also called Clone nr; 635
koff [3]: 0.00259 s⁻¹
koff [4]: 0.108 s⁻¹
PE binding ELISA OD [5]: 0.528 OD450 nm
PE binding ELISA OD [6]: 0.049 OD450 nm

B13: FJ1427_P035MP07G07 (VHH)
VHH: B4 VHH with R43K, S83N
notes: as for B4
koff [3]: 0.00273 s⁻¹
koff [4]: 0.106 s⁻¹
PE binding ELISA OD [5]: 0.479 OD450 nm
PE binding ELISA OD [6]: 0.045 OD450 nm

B15: FJ1427_P035MP07E06 (VHH)
VHH: B4 VHH with R43K, S83N
notes: as for B4
koff [3]: 0.00272 s⁻¹
koff [4]: 0.102 s⁻¹
PE binding ELISA OD [5]: 0.464 OD450 nm
PE binding ELISA OD [6]: 0.046 OD450 nm

B19: FJ1427_P035MP07G10 (VHH)
VHH: QVQLVESGGGLVQAGGSLRLSCAASGRTLSRYAMGWFRQAPGKEREYVAIDSWGGDTFYADSVEGRFTFSRDNAKNEVYLQMNSLQPEDTAVYYCAGAPTSFATTAYSSSNSYRYWGQGTQVTVSS
notes: tested as periplasmic extract; also called Clone nr; 655
koff [3]: 0.00122 s⁻¹
koff [4]: 0.00682 s⁻¹
PE binding ELISA OD [5]: 0.682 OD450 nm
PE binding ELISA OD [6]: 0.74 OD450 nm

B20: FJ1427_P035MP07H02 (VHH)
VHH: B4 VHH with T28A, Y32L, R43K, T49V, N51S, G55D, Y58F, Q64K, S83N, E88G
notes: tested as periplasmic extract; also called Clone nr; 592
koff [3]: 0.00188 s⁻¹
koff [4]: 0.0123 s⁻¹
PE binding ELISA OD [5]: 0.801 OD450 nm
PE binding ELISA OD [6]: 0.066 OD450 nm

B23: FJ1427_P035MP07H01 (VHH)
VHH: B4 VHH with S21F, A24T, T49A, A50C, N51D, Y58F, Q64K, N73S, S83N
notes: as for B4
koff [3]: 0.00125 s⁻¹
koff [4]: 0.0274 s⁻¹
PE binding ELISA OD [5]: 0.818 OD450 nm
PE binding ELISA OD [6]: 0.133 OD450 nm

More lines, now with the values ahead:

OD450 nm (P.E. binding ELISA) (human IL-2Rβ [1]): 0.69 OD450 nm
koff (human IL-2Rβ [2]): 0.00101 s⁻¹
B2: FJ1427 P035MP06C09 (VHH)
VHH: B1 VHH with Q1E, V24A, A40T, A79V, D109R, L110A
notes: as for B1

OD450 nm (P.E. binding ELISA) (human IL-2Rβ [1]): 1.42 OD450 nm
koff (human IL-2Rβ [2]): 0.000324 s⁻¹
B3: FJ1427 P035MP06B06 (VHH)
VHH: B1 VHH with Q1E, S17P
notes: as for B1

koff [3]: 0.00365 s⁻¹
koff [4]: 0.1 s⁻¹
PE binding ELISA OD [5]: 1.22 OD450 nm
PE binding ELISA OD [6]: 0.051 OD450 nm
B5: FJ1427_P035MP07G02 (VHH)
VHH: B4 VHH with R43K, S83N
notes: as for B4

koff [3]: 0.00309 s⁻¹
koff [4]: 0.099 s⁻¹
PE binding ELISA OD [5]: 0.495 OD450 nm
PE binding ELISA OD [6]: 0.048 OD450 nm
B6: FJ1427_P035MP07G03 (VHH)
VHH: B4 VHH with R43K, S83N
notes: as for B4

koff [3]: 0.00311 s⁻¹
koff [4]: 0.0966 s⁻¹
PE binding ELISA OD [5]: 0.445 OD450 nm
PE binding ELISA OD [6]: 0.048 OD450 nm
B11: FJ1427_P035MP07E03 (VHH)
VHH: B4 VHH with R43K, S83N
notes: tested as periplasmic extract; also called Clone nr; 597

koff [3]: 0.00303 s⁻¹
koff [4]: 0.1 s⁻¹
PE binding ELISA OD [5]: 0.51 OD450 nm
PE binding ELISA OD [6]: 0.047 OD450 nm
B14: FJ1427_P035MP07H08 (VHH)
VHH: B4 VHH with R43K, S83N
notes: tested as periplasmic extract; also called Clone nr; 640

koff [3]: 0.00255 s⁻¹
koff [4]: 0.106 s⁻¹
PE binding ELISA OD [5]: 0.889 OD450 nm
PE binding ELISA OD [6]: 0.049 OD450 nm
B16: FJ1427_P035MP07A08 (VHH)
VHH: B4 VHH with R43K, S83N
notes: tested as periplasmic extract; also called Clone nr; 633

koff [3]: 0.00282 s⁻¹
koff [4]: 0.11 s⁻¹
PE binding ELISA OD [5]: 0.439 OD450 nm
PE binding ELISA OD [6]: 0.045 OD450 nm
B17: FJ1427_P035MP07B05 (VHH)
VHH: B4 VHH with R43K, S83N
notes: tested as periplasmic extract; also called Clone nr; 610

koff [3]: 0.00177 s⁻¹
koff [4]: 0.0823 s⁻¹
PE binding ELISA OD [5]: 0.593 OD450 nm
PE binding ELISA OD [6]: 0.052 OD450 nm
B18: FJ1427_P035MP07H04 (VHH)
VHH: B19 VHH with Y47F, I50A, D51M, K75E, N76I, E77A, G97A, R114A, S126H
notes: as for B4

koff [3]: 0.00279 s⁻¹
koff [4]: 0.118 s⁻¹
PE binding ELISA OD [5]: 1.14 OD450 nm
PE binding ELISA OD [6]: 0.049 OD450 nm
B21: FJ1427_P035MP07H05 (VHH)
VHH: B4 VHH with R43K, T49A, A60T, Q64E, T77A, S83N, E88G, A114S
notes: as for B4

koff [3]: 0.00236 s⁻¹
koff [4]: 0.0137 s⁻¹
PE binding ELISA OD [5]: 0.572 OD450 nm
PE binding ELISA OD [6]: 0.049 OD450 nm
B22: FJ1427_P035MP07H10 (VHH)
VHH: EVQLVESGGGLVQAGGSLRLSCAASGRALSRLAMGWFRQAPGKEREFVVASSWGDDTFYADSVKGRFTFSRDNAKNTVYLQMNSLQPGDTAVYYCAAAPTSFATTAYSSSNSYAYWGQGTQVTVSS
notes: tested as periplasmic extract; also called Clone nr; 656

koff [3]: 0.00418 s⁻¹
koff [4]: 0.00331 s⁻¹
PE binding ELISA OD [5]: 1.42 OD450 nm
PE binding ELISA OD [6]: 0.047 OD450 nm
B24: FJ1427_P035MP07H07 (VHH)
VHH: B4 VHH with G16D, R43K, T49A, N51T, T57S, Q64E, T77A, S83N, Y115N
notes: as for B4

koff [3]: 0.00259 s⁻¹
koff [4]: 0.00347 s⁻¹
PE binding ELISA OD [5]: 0.29 OD450 nm
PE binding ELISA OD [6]: 0.045 OD450 nm
B25: FJ1427_P035MP07B07 (VHH)
VHH: QVQLVESGGGLVQAGGSLRLSCAASGRSLSRYAMGWFRQAPGKEREFVAAISWGGDSFYTDSVEGRFTFSRDNAKNAVYLEMNDLQPEDTAVYYCAAAPTSFPTTAYSSSNSYSYWGRGTQVTVSS
notes: tested as periplasmic extract; also called Clone nr; 626

koff [3]: 0.00176 s⁻¹
koff [4]: 0.0132 s⁻¹
PE binding ELISA OD [5]: 0.424 OD450 nm
PE binding ELISA OD [6]: 0.074 OD450 nm
B26: FJ1427_P035MP07C10 (VHH)
VHH: B25 VHH with Y32D, A50V, I51M, S57T, P103A
notes: tested as periplasmic extract; also called Clone nr; 651
